Substrate: O=CCO
Experiment: HPLC of erythrulose formation, initial velocities, Michaelis-Menten fit
Assay type: biochemical, Escherichia coli
Details: 50 mM HPA, 1.36 mM ThDP, 5.1 mM MgCl2, 33 mM Tris.HCl, pH 7.0, assay 21 °C, pre-incubated 15 min at 21 °C, standard error in parentheses
Text: HPLC of erythrulose formation, initial velocities, Michaelis-Menten fit on WT transketolase (WT TK)

B1: WT transketolase (WT TK) (Escherichia coli K-12) (protein)
chain: MSSRKELANAIRALSMDAVQKAKSGHPGAPMGMADIAEVLWRDFLKHNPQNPSWADRDRFVLSNGHGSMLIYSLLHLTGYDLPMEELKNFRQLHSKTPGHPEVGYTAGVETTTGPLGQGIANAVGMAIAEKTLAAQFNRPGHDIVDHYTYAFMGDGCMMEGISHEVCSLAGTLKLGKLIAFYDDNGISIDGHVEGWFTDDTAMRFEAYGWHVIRDIDGHDAASIKRAVEEARAVTDKPSLLMCKTIIGFGSPNKAGTHDSHGAPLGDAEIALTREQLGWKYAPFEIPSEIYAQWDAKEAGQAKESAWNEKFAAYAKAYPQEAAEFTRRMKGEMPSDFDAKAKEFIAKLQANPAKIASRKASQNAIEAFGPLLPEFLGGSADLAPSNLTLWSGSKAINEDAAGNYIHYGVREFGMTAIANGISLHGGFLPYTSTFLMFVEYARNAVRMAALMKQRQVMVYTHDSIGLGEDGPTHQPVEQVASLRVTPNMSTWRPCDQVESAVAWKYGVERQDGPTALILSRQNLAQQERTEEQLANIARGGYVLKDCAGQPELIFIATGSEVELAVAAYEKLTAEGVKARVVSMPSTDAFDKQDAAYRESVLPKAVTARVAVEAGIADYWYKYVGLNGAIVGMTTFGESAPAELLFEEFGFTVDNVVAKAKELL
notes: full length, N-terminal His6 tag (plasmid pQR791), Ni-NTA purified, tag cleavage not mentioned; homodimer of 73-74 kDa monomers; WT expressed in E. coli XL10-Gold, variants in E. coli C321.dA.exp
Km: 22 (3) mM
Vmax: 4600 µM/min
kcat: 53.3 s⁻¹
kcat/Km: 2500 M⁻¹ s⁻¹

Reference: article PMC11564776, “Enzyme stabilisation due to incorporation of a fluorinated non-natural amino acid at the protein surface” (Scientific Reports, 2024)
